Measured values reported in patent US20200276130.

Assays:
[1] = target: GST-PKM1 recombinant protein, P14618
[2] = target: GST-PKM2 recombinant protein, P14618
Sequence of GST-PKM2 recombinant protein, P14618 (P14618 whole entry, looked up): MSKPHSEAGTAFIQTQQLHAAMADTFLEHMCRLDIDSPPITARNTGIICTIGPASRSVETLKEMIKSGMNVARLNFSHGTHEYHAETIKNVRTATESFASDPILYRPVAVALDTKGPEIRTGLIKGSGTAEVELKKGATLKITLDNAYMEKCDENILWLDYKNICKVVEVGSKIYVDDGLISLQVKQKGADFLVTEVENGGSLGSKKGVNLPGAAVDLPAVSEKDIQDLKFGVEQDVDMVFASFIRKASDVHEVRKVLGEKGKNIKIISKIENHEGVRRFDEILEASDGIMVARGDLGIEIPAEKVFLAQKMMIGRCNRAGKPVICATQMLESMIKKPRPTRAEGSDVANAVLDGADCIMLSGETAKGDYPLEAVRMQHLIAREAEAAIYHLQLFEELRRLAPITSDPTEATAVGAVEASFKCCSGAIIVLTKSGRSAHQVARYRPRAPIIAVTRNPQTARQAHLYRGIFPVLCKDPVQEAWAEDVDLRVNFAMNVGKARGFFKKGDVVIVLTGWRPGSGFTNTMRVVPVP

Sequence of GST-PKM1 recombinant protein, P14618 (P14618 other isoform, or with tags, fused parts or gaps): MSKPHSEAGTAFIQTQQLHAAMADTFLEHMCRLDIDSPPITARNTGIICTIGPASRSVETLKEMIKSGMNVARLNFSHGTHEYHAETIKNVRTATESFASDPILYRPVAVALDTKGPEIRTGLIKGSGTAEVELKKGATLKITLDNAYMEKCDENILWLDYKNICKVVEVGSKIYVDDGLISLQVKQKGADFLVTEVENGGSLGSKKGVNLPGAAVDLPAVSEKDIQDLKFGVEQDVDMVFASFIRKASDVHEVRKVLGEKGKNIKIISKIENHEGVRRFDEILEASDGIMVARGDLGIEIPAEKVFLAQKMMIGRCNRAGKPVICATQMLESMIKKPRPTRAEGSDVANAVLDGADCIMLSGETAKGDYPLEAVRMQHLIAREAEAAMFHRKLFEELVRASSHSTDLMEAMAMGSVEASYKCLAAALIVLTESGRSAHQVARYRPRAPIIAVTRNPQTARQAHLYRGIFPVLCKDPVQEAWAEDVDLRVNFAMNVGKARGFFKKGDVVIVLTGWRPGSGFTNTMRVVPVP

B1: recombinant CARM1 used in the in vitro methylation assays (protein)
chain: MAAAAAAVGPGAGGAGSAVPGGAGPCATVSVFPGARLLTIGDANGEIQRHAEQQALRLEVRAGPDSAGIALYSHEDVCVFKCSVSRETECSRVGKQSFIITLGCNSVLIQFATPNDFCSFYNILKTCRGHTLERSVFSERTEESSAVQYFQFYGYLSQQQNMMQDYVRTGTYQRAILQNHTDFKDKIVLDVGCGSGILSFFAAQAGARKIYAVEASTMAQHAEVLVKSNNLTDRIVVIPGKVEEVSLPEQVDIIISEPMGYMLFNERMLESYLHAKKYLKPSGNMFPTIGDVHLAPFTDEQLYMEQFTKANFWYQPSFHGVDLSALRGAAVDEYFRQPVVDTFDIRILMAKSVKYTVNFLEAKEGDLHRIEIPFKFHMLHSGLVHGLAFWFDVAFIGSIMTVWLSTAPTEPLTHWYQVRCLFQSPLFAKAGDTLSGTCLLIANKRQSYDISIVAQVDQTGSKSSNLLDLKNPFFRYTGTTPSPPPGSHYTSPSENMWNTGSTYNLSSGMAVAGMPTAYDLSSVIASGSSVGHNNLIPLANTGIVNHTHSRMGSIMSTGIVQGSSGAQGSGGGSTSAHYAVNSQFTMGGPAISMASPMSIPTNTMHYGS
- in vitro methylation assay (3H-SAM, autoradiography) [1]: only PKM2, but not PKM1, can be methylated by CARM1 in in vitro methylation assays
- in vitro methylation assay (3H-SAM, autoradiography) [2]: only PKM2, but not PKM1, can be methylated by CARM1 in in vitro methylation assays
